# Test results as given in patent publication US20230329245A1, “COMPOSITIONS AND METHODS OF USE THEREOF” (Curie Co. Inc., priority 2020, published 2023).
# B1: Tgase (SEQ ID NO: 6): variant Streptomyces mobaraensis transglutaminase (SEQ ID NO:2) with N-terminal Methionine, C-terminal peptide linker and hexa-His-Tag (protein)
# chain: MDPDDRVTPPAEPLDRMPDPYRPSYGRAETVVNNYIRKWQQVYSHRDGRKQQMTEEQREWLSYGCVGVTWVNSGQYPTNRLAFASFDEDRFKNELKNGRPRSGETRAEFEGRVAKESFDEEKGFQRAREVASVMNRALENAHDESAYLDNLKKELANGNDALRNEDARSPFYSALRNTPSFKERNGGNHDPSRMKAVIYSKHFWSGQDRSSSADKRKYGDPDAFRPAPGTGLVDMSRDRNIPRSPTSPGEGFVNFDYGWFGAQTEADADKTVWTHGNHYHAPNGSLGAMHVYESKFRNWSEGYSDFDRGAYVITFIPKSWNTAPDKVKQGWPLEHHHHHH
# System: B. subtilis BGSC 1A1276
# Test: Growth reduction of B. subtilis culture (OD600 / BacTiter-Glo)
# Type: cell-based
# Procedure: For MIC determination of bacterial cultures, E. coli ATCC 8739, DH5-alpha, DH10-beta, and B. subtilis BGSC 1A1276 was grown overnight (16-18 hours) in LB broth at 37° C. The following day, the cell density of the saturated cultures was calculated using OD600 and cultures were diluted to 10^4 to 10^6 CFU/mL in sterile LB media to generate the inoculum, and 90 μL of the inoculum was combined with 10 μL of serially diluted Tgase SEQ ID NO:1 at a range of 0.0001-0.01 weight percent in the presence or absence of 0.003% lysozyme (100-fold lower than the effective concentration). Growth curves were measured by OD600 on a BioTek® Synergy Plate Reader. Optionally, the following day, a cell viability assay such as BacTiter-Glo™ (Promega®) following manufacturer's protocols) could be used to assess cell viability. A decrease in OD600 or luminescence indicated a decrease in cell viability. Results are presented as a percent reduction in cell count relative to an untreated culture. All test conditions were performed in triplicate.
# Yeast or bacterial starter cultures were grown as described previously. Tgase (SEQ ID NO:6) was added to each culture at 0.001-1 weight percent. The cultures were grown overnight at 30° C.-37° C. and growth curves were measured by a BioTek® Synergy Plate Reader.
molecule,measurement,setting,value
B1,Fold improvement in enzyme efficacy,Tgase (SEQ ID NO: 1) alone = 1,12
same,Percent Growth Reduction,enzyme concentration 80 ug/mL,99.77%
